Data from publication PMC7509555, “An In Vitro Study for Evaluating Permeability and Metabolism of Kurarinone” (Evidence-based Complementary and Alternative Medicine : eCAM, 2020).

Key:
Format in all cases: in vitro ADME, human
HLMs = test: Chemical inhibition study of kurarinone metabolism (P1 formation) in HLMs; conditions: kurarinone 20 μM in HLMs
From the text: HLMs were utilized as metabolic enzymes.

[1] = substrate: C=C(C)C(CC=C(C)C)Cc1c(O)cc(OC)c2c1O[C@H](c1ccc(O)cc1O)CC2=O; test: Enzyme kinetics of P1 formation from kurarinone in recombinant CYP1A2; conditions: other: recombinant CYP1A2; kurarinone 1–200 μM; 37.0 °C
Protocol: (§1) Samples were prepared in a total volume of 200 μL, containing 0.3 mg/mL protein in human liver microsomes or 15 nM protein in recombinant human supersomes, probe substrates or 50 μM kurarinone, 10 mM MgCl2, 10 mM glucose-6-phosphate, and 1 unit/mL of glucose-6-phosphate dehydrogenase. The reactions were activated by adding NADPH following preincubation at 37°C for 5 min. The reactions were maintained at 37°C for 1 h and terminated by adding 200 μL ice-cold acetonitrile. The supernatant (10 μL) collected from the samples that were centrifuged (20,000 g, 20 min, 4°C) was injected into the HPLC system for analysis. Control incubations devoid of NADPH or kurarinone were performed parallelly to ensure that the produced metabolites were NADPH- or kurarinone-dependent.
(§2) Various concentrations of kurarinone (1–200 μM) were incubated with RLMs, MLMs, PLMs, RAMs, CYP1A2, and CYP2D6 to estimate kinetic parameters. The rest of the other conditions remained the same as described in Section 2.3. […] The apparent Km and Vmax values were calculated from nonlinear regression analysis of experimental data according to the Michaelis–Menten equation, and the results were represented graphically by Eadie–Hofstee plots. All incubations were carried out as triplicate independent experiments, and kinetic constants were recorded as mean ± SD.

[2] = substrate: C=C(C)C(CC=C(C)C)Cc1c(O)cc(OC)c2c1O[C@H](c1ccc(O)cc1O)CC2=O; test: Enzyme kinetics of P1 formation from kurarinone in recombinant CYP2D6; conditions: other: recombinant CYP2D6; kurarinone 1–200 μM; 37.0 °C
Protocol: as §1, §2

## Cc1nc2c([nH]1)c(=O)n(C)c(=O)n2Cc1ccco1 [furafylline]
HLMs
  effect of selective CYP inhibitor on formation of P1 from kurarinone: remarkably inhibited

B1: CYP1A2 (Homo sapiens) (protein)
chain: MALSQSVPFSATELLLASAIFCLVFWVLKGLRPRVPKGLKSPPEPWGWPLLGHVLTLGKNPHLALSRMSQRYGDVLQIRIGSTPVLVLSRLDTIRQALVRQGDDFKGRPDLYTSTLITDGQSLTFSTDSGPVWAARRRLAQNALNTFSIASDPASSSSCYLEEHVSKEAKALISRLQELMAGPGHFDPYNQVVVSVANVIGAMCFGQHFPESSDEMLSLVKNTHEFVETASSGNPLDFFPILRYLPNPALQRFKAFNQRFLWFLQKTVQEHYQDFDKNSVRDITGALFKHSKKGPRASGNLIPQEKIVNLVNDIFGAGFDTVTTAISWSLMYLVTKPEIQRKIQKELDTVIGRERRPRLSDRPQLPYLEAFILETFRHSSFLPFTIPHSTTRDTTLNGFYIPKKCCVFVNQWQVNHDPELWEDPSEFRPERFLTADGTAINKPLSEKMMLFGMGKRRCIGEVLAKWEIFLFLAILLQQLEFSVPPGVKVDLTPIYGLTMKHARCEHVQARLRFSIN
notes: purchased BD Gentest Corp. (Woburn, MA, USA)
[1]
  Km: 9.45 ± 2.11 µM
  kcat: 2.45 ± 0.25 μmol·min^−1·nmol^−1 CYP

B2: CYP2D6 (Homo sapiens) (protein)
chain: MGLEALVPLAVIVAIFLLLVDLMHRRQRWAARYPPGPLPLPGLGNLLHVDFQNTPYCFDQLRRRFGDVFSLQLAWTPVVVLNGLAAVREALVTHGEDTADRPPVPITQILGFGPRSQGVFLARYGPAWREQRRFSVSTLRNLGLGKKSLEQWVTEEAACLCAAFANHSGRPFRPNGLLDKAVSNVIASLTCGRRFEYDDPRFLRLLDLAQEGLKEESGFLREVLNAVPVLLHIPALAGKVLRFQKAFLTQLDELLTEHRMTWDPAQPPRDLTEAFLAEMEKAKGNPESSFNDENLRIVVADLFSAGMVTTSTTLAWGLLLMILHPDVQRRVQQEIDDVIGQVRRPEMGDQAHMPYTTAVIHEVQRFGDIVPLGVTHMTSRDIEVQGFRIPKGTTLITNLSSVLKDEAVWEKPFRFHPEHFLDAQGHFVKPEAFLPFSAGRRACLGEPLARMELFLFFTSLLQHFSFSVPTGQPRPSHHGVFAFLVSPSPYELCAVPR
notes: as for B1
[2]
  Km: 13.76 ± 3.09 µM
  kcat: 2.78 ± 0.36 μmol·min^−1·nmol^−1 CYP
